Here are results for eight molecules from US20030161809A1 (published 2003).

T1: GST-Cyn monkey-stalk fusion protein (Schistosoma japonica; cynomolgus monkey)
T1 construct: also called D6 cyno; Cyno; not shown: GST (Schistosoma japonicum, from pGEX-2TK) and its linker before the GS
T1 chain: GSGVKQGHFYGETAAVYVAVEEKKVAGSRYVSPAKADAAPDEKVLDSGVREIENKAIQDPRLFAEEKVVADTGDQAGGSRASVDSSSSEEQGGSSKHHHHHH

T2: GST-Rat-stalk fusion protein (Schistosoma japonica; rat, UniProt P15083 535-643)
T2 construct: domain: stalk; About 39.3 kD, no 6xHis tag; also called [GST]-[rat domain 6] fusion protein; D6 rat; not shown: glutathione-S-transferase from Schistosoma japonica, from vector pGEX-2TK
T2 sequence (looked up): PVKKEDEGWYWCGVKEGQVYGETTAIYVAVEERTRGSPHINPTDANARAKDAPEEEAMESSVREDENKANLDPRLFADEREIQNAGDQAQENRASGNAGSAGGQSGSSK

B1: single chain antibody sFv5AF (scFv)
scFv: DYKAKQVQLVQSGGGVVQPGRSLRLSCAASGFTFSSYAMHWVRQAPGKGLEWVSAISGSGGSTYYADSVKGRFTISRDNAKNSLYLQMNSLRAEDTAVYYCARDTRGYFDLWGRGTLVTVSSGGGGSGGGGSGGGGSSELTQDPAMSVALGQTVRITCQGDSLRKYHASWYQQRPRQAPRLVVYGKNERPSGIPERFSGSTSGDTASLTISGLQAEDEADYYCHSRDSNADLVVFGGGTKVTVLGAAAEQKLISEEDLNGAAHHHHHH
B2: purified dimer sFv5AF-Cys (scFv)
scFv: DYKAKQVQLVQSGGGVVQPGRSLRLSCAASGFTFSSYAMHWVRQAPGKGLEWVSAISGSGGSTYYADSVKGRFTISRDNAKNSLYLQMNSLRAEDTAVYYCARDTRGYFDLWGRGTLVTVSSGGGGSGGGGSGGGGSSELTQDPAMSVALGQTVRITCQGDSLRKYHASWYQQRPRQAPRLVVYGKNERPSGIPERFSGSTSGDTASLTISGLQAEDEADYYCHSRDSNADLVVFGGGTKVTVLGGGGGSCAAAEQKLISEEDLNGAAHHHHHH
notes: also called 5Afcys Dimer; sFv5AF-Cys dimer
B3: sFv5AF-Cys (starting material, mixture of monomer and dimer) (scFv)
scFv: B2 scFv
notes: also called s5AF-Cys
B4: single chain antibody sFv5A (scFv)
scFv: QVQLQQSGGGVVQPGRSLRLSCAASGFTFSSYAMHWVRQAPGKGLEWVSAISGSGGSTYYADSVKGRFTISRDNAKNSLYLQMNSLRAEDTAVYYCARDTRGYFDLWGRGTLVTVSSGGGGSGGGGSGGGGSSELTQDPAMSVALGQTVRITCQGDSLRKYHASWYQQRPRQAPRLVVYGKNERPSGIPERFSGSTSGDTASLTISGLQAEDEADYYCHSRDSNADLVVFGGGTKVTVLGAAAEQKLISEEDLNGAAHHHHHH
B5: [monomer sFv5AF-Cys]-SPDP-[15 kD protein] conjugate with c-myc tag (Az018a) (other)
scFv: B2 scFv
B6: [dimer sFv5AF-Cys]-SPDP-[15 kD protein] conjugate (Az019) (other)
scFv 1: B2 scFv
scFv 2: B2 scFv
notes: also called AzO19; Az0019
B7: [monomer sFv5AF-Cys]-SPDP-[15 kD protein] conjugate without c-myc tag (Az018b) (other)
scFv: DYKAKQVQLVQSGGGVVQPGRSLRLSCAASGFTFSSYAMHWVRQAPGKGLEWVSAISGSGGSTYYADSVKGRFTISRDNAKNSLYLQMNSLRAEDTAVYYCARDTRGYFDLWGRGTLVTVSSGGGGSGGGGSGGGGSSELTQDPAMSVALGQTVRITCQGDSLRKYHASWYQQRPRQAPRLVVYGKNERPSGIPERFSGSTSGDTASLTISGLQAEDEADYYCHSRDSNADLVVFGGGTKVTVLGGGGGSC
notes: also called Az0018b; not shown: the 15 kD protein (never identified); the exact point where the c-myc/His tail was lost
B8: purified monomer sFv5AF-Cys (scFv)
scFv: B2 scFv
notes: also called 5Afcys Monomer; sFv5AF-Cys monomer

T3 sequence (P01833 550-638, tags left off): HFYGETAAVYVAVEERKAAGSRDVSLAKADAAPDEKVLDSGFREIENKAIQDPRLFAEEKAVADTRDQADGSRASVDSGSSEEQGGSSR

The target in one assay is pIgR expressed on transfected MDCK cells. Briefly: cell-based or functional assay.
B1 displayed a percent transcytosis, pIgR expressing MDCK cells, overnight of 2%.

Another assay has as its target T3, GST-Human-stalk fusion protein (Schistosoma japonica; human, UniProt P01833 550-638).
T3 construct: domain: stalk; About 37.8 kD; also called D6 human; human pIgR Domain 6 GST (D6-GST) fusion protein; not shown: glutathione-S-transferase from Schistosoma japonica, from vector pGEX-2TK
Briefly: SPR (Biacore), D6-GST captured on anti-GST antibody. (SPR reads the build-up and loss of mass on a sensor chip optically.)
As for B2, the “fold difference in affinity against the purified monomer” value (from here on “fold difference in affinity”) is approximately 3 fold.

Another assay addresses T1, GST-Cyn monkey-stalk fusion protein. The assay is described as above.
Take B2: the “fold difference in affinity” value was approximately 3 fold.

A further assay has as its target T2, GST-Rat-stalk fusion protein. The description is as above.
As for B2, the “fold difference in affinity” value is approximately 3 fold.

A further assay has as its target pIgR Domain 6 GST (D6-GST) fusion protein, species not named. Briefly: SPR (Biacore), 1:1 Langmuir model; ligand not given.
By Kd is commonly meant the constant that tells how readily two partners part at equilibrium. Broadly, the koff is the rate constant with which the complex falls apart. A high value points to fast dissociation. As usually defined, the kon is a measure of how fast the partners come together. Turning to B3, the Ka stood at 9.84e+06 M⁻¹, the Kd is 102 nM, the dissociation rate constant (koff) came to 0.00464 s⁻¹ and the kon was 37600 M⁻¹ s⁻¹.
For B4 the same measures were 6.31e+06 M⁻¹, 158 nM, 0.00464 s⁻¹ and 29300 M⁻¹ s⁻¹.
For B1 the same measures were 4.47e+06 M⁻¹, 224 nM, 0.00464 s⁻¹ and 27100 M⁻¹ s⁻¹.

The target in another assay is T3, GST-Human-stalk fusion protein. Briefly: SPR (Biacore), D6-GST captured on anti-GST antibody, global fit.
B5 gave a Ka of 9.62e+06 M⁻¹, a dissociation constant (Kd) of 104 nM, a koff of 0.00449 s⁻¹ and a kon of 43200 M⁻¹ s⁻¹.
B6 displayed a Ka of 1.39e+08 M⁻¹, a dissociation constant (Kd) of 7.18 nM, a koff of 0.00109 s⁻¹ and an on-rate (kon) of 152000 M⁻¹ s⁻¹.
In turn, B7 gave a Ka of 9.3e+06 M⁻¹, an equilibrium dissociation constant (Kd) of 107 nM, a koff of 0.00465 s⁻¹ and a kon of 43200 M⁻¹ s⁻¹.
For the molecule B4, the Ka stood at 2.16e+07 M⁻¹; the affinity, expressed as Kd, was 46.3 nM; the off-rate constant (koff) turned out to be 0.00337 s⁻¹; the on-rate constant (kon) was 72900 M⁻¹ s⁻¹.

The target of a further assay is T1, GST-Cyn monkey-stalk fusion protein. The assay is described as above.
The molecule B5 gave a Ka of 9.69e+06 M⁻¹, a Kd of 103 nM, a koff of 0.00535 s⁻¹ and a kon of 51800 M⁻¹ s⁻¹.
The corresponding values for B6 are 1.52e+08 M⁻¹, 6.57 nM, 0.00108 s⁻¹ and 164000 M⁻¹ s⁻¹.
As to B7, the Ka turned out to be 9.5e+06 M⁻¹, the dissociation constant Kd stood at 105 nM, the off-rate constant (koff) was 0.00557 s⁻¹ and the association rate constant (kon) worked out at 52900 M⁻¹ s⁻¹.
As for B4, the Ka turned out to be 1.93e+07 M⁻¹, the dissociation constant (Kd) turned out to be 51.8 nM, the koff was determined as 0.00397 s⁻¹ and the on-rate constant (kon) is 76700 M⁻¹ s⁻¹.

A further assay addresses T2, GST-Rat-stalk fusion protein. The description is as above.
B5 showed a Ka of 1.24e+07 M⁻¹, a Kd of 80.6 nM, a dissociation rate constant (koff) of 0.0038 s⁻¹ and a kon of 47100 M⁻¹ s⁻¹.
The corresponding values for B6 are 1.06e+08 M⁻¹, 9.39 nM, 0.00196 s⁻¹ and 209000 M⁻¹ s⁻¹.
With B7, the Ka was 1.28e+07 M⁻¹, the equilibrium dissociation constant (Kd) was found to be 77.9 nM, the dissociation rate constant (koff) was found to be 0.00385 s⁻¹ and the kon was 49400 M⁻¹ s⁻¹.
Turning to B4, the Ka amounted to 2.95e+07 M⁻¹, the Kd was 33.9 nM, the off-rate (koff) turned out to be 0.00262 s⁻¹ and the on-rate constant (kon) worked out at 77300 M⁻¹ s⁻¹.

For the next assay, the target named is T3, GST-Human-stalk fusion protein. Kind of assay: SPR (Biacore), D6-GST captured on anti-GST antibody, 1:1 Langmuir global fit.
For the molecule B3, the Ka was 6.71e+08 M⁻¹, binding was characterised by a dissociation constant (Kd) of 1.49 nM, the off-rate (koff) was 0.00145 s⁻¹ and the kon was 976000 M⁻¹ s⁻¹.
Turning to B2, the Ka came to 5.02e+08 M⁻¹, binding was characterised by a dissociation constant (Kd) of 1.99 nM, the dissociation rate constant (koff) turned out to be 0.00217 s⁻¹ and the kon was 1.09e+06 M⁻¹ s⁻¹.
The corresponding values for B8 are 1.77e+08 M⁻¹, 5.64 nM, 0.00241 s⁻¹ and 428000 M⁻¹ s⁻¹.

For a further assay, the target named is T1, GST-Cyn monkey-stalk fusion protein. The assay is described as above.
The molecule B3 showed a Ka of 7.7e+08 M⁻¹, a Kd of 1.3 nM, an off-rate constant (koff) of 0.00137 s⁻¹ and a kon of 1.06e+06 M⁻¹ s⁻¹.
For B2 the same measures were 4.61e+08 M⁻¹, 2.17 nM, 0.00244 s⁻¹ and 1.12e+06 M⁻¹ s⁻¹.
B8 showed a Ka of 1.73e+08 M⁻¹, a Kd of 5.77 nM, a koff of 0.00256 s⁻¹ and an on-rate (kon) of 443000 M⁻¹ s⁻¹.

The next assay concerns the target T2, GST-Rat-stalk fusion protein. The description is as above.
As to B3, the Ka was found to be 4.36e+08 M⁻¹, the equilibrium dissociation constant (Kd) turned out to be 2.3 nM, the off-rate constant (koff) came out at 0.00282 s⁻¹ and the kon is 1.23e+06 M⁻¹ s⁻¹.
Take B2: the Ka amounted to 5.01e+08 M⁻¹, the dissociation constant Kd turned out to be 2 nM, the koff amounted to 0.00341 s⁻¹ and the kon was found to be 1.71e+06 M⁻¹ s⁻¹.
B8: the Ka stood at 1.77e+08 M⁻¹, the Kd stood at 5.63 nM, the koff was 0.00303 s⁻¹ and the kon was 538000 M⁻¹ s⁻¹.
